The values that follow come from publication PMC6956818, “Activation of JNK and p38 MAPK Mediated by ZDHHC17 Drives Glioblastoma Multiforme Development and Malignant Progression” (Theranostics, 2020).

One assay deals with T1, ZDHHC17 (Homo sapiens, UniProt Q8IUH5).
T1 construct: purified ZDHHC17 (50 ng) with recombinant MAP2K4; with MAP2K4
Description: ex vivo kinase assay of ZDHHC17-activated MAP2K4 with JNK2 substrate (western blot); supported by co-IP disruption in U118MG cells and ZDHHC17 mutants; no direct binding measurement. The assay is classed as biochemical.

Assay [1] has as its target Myc-tagged ZDHHC17 ANK (1-7). Description: co-immunoprecipitation, quantified immunoblot. Particulars: HEK293 cell lysates; parent: est. 1.0; read off a plot.

T1 sequence (Q8IUH5 whole entry): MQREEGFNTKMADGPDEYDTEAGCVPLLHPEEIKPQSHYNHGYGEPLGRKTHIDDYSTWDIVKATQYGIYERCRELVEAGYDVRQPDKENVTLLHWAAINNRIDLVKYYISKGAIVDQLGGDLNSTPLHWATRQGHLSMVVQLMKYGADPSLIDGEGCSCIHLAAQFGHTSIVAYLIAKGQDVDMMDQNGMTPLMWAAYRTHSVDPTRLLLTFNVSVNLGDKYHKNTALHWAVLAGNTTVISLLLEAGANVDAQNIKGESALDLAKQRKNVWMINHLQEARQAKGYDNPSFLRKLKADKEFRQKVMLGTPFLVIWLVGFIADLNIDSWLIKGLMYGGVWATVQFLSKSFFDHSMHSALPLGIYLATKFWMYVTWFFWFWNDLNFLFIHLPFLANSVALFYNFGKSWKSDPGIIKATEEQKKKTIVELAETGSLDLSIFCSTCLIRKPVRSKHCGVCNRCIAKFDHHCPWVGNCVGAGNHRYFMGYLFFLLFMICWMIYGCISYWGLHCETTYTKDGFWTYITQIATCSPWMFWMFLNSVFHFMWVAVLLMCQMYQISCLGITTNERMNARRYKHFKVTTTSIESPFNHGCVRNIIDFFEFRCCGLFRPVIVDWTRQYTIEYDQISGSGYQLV
T1 sequence (P45985 2-399 partner): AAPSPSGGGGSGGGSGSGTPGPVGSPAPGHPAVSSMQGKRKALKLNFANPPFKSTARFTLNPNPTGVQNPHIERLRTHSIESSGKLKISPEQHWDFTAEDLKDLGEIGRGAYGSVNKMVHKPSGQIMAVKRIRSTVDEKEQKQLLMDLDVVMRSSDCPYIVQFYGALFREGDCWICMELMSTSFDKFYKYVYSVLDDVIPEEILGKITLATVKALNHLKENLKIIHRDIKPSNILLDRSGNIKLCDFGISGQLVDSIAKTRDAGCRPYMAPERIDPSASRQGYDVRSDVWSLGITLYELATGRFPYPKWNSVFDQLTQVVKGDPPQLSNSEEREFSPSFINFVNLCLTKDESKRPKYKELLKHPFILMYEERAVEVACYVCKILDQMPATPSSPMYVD

By IC50 is commonly meant the concentration that gives 50% inhibition. A lower IC50 goes with greater potency in that assay. In turn, `O=c1c(-c2ccc(O)cc2)coc2cc(O)cc(O)c12` [genistein] returned a 50% inhibitory concentration (IC50) at ZDHHC17 of 800 nM.

For the molecule “FLAG-tagged MAP2K4 protein kinase c (PKc) domain fragment E221G”, the ratio to parent in assay [1] is 0.85.

In the case of “FLAG-tagged MAP2K4 protein kinase c (PKc) domain fragment M153G”, the ratio to parent in assay [1] is 0.5.

Regarding “FLAG-tagged MAP2K4 protein kinase c (PKc) domain fragment N222G”, the ratio to parent in assay [1] is 0.35.

In the case of “FLAG-tagged MAP2K4 protein kinase c (PKc) domain fragment R154G”, the ratio to parent in assay [1] stood at 0.73.

As for “FLAG-tagged MAP2K4 protein kinase c (PKc) domain fragment S80G”, in assay [1], the ratio to parent stood at 0.83.

For “FLAG-tagged MAP2K4 protein kinase c (PKc) domain fragment W95G”, in assay [1], the ratio to parent was 0.47.
